The results in this text go back to patent US20210213145A1 (TAYU HUAXIA BIOTECH MEDICAL GROUP, published 2021).

Positions count from the first letter of the chain named.

B1: anti-hPD-L1 mAb 5B7 (antibody, IgG1, V domains shown)
VH: EVQLQQSGAELVKPGASVKLSCTASGFNIKDTYMYWVKQRPEQGLECIGRIDPANDNTKYDPKFQGKATITADTSSNTAYVQLASLTSEDTAVYYCARAKNLLNYFDYWGQGTTLTVSS
VL: DIQMTQSPSSLSASLGERVTLSCRASQEISGYLSWLQQKPDGTIKRLIYATSTLDSGVPKRFSGSRSGSDYSLTISSLESEDFADYYCLQYAIYPLTFGAGTKLELKR
notes: also called anti hPD-L1 monoclonal antibody 5B7; anti-hPD-L1 monoclonal antibody
B2: anti-PD-L1 parental (mouse-human chimeric mAb) (antibody, human IgG1, kappa, V domains shown)
VH: B1 VH
VL: B1 VL
notes: its variable domains are the same; also called parental chimeric antibody; parental (PA200)
B3: anti-PD-L1 HC1 + LC2 (antibody, V domains shown)
VH: QVQLVQSGAEVKKPGASVKVSCKASGFNIKDTYMYWVRQAPGQGLEWMGRIDPANDNTKYAQKFQGRVTITADTSTSTAYMELSSLRSEDTAVYYCARAKNLLNYFDYWGQGTLVTVSS
VL: DIQMTQSPSSLSASVGDRVTITCRASQEISGYLSWLQQKPGKAPKRLIYATSTLQSGVPSRFSGSRSGTDYTLTISSLQPEDFATYYCLQYAIYPLTFGQGTKLEIKR
notes: Humanized antibody, Humanized VH 1 + Humanized VL 2; also called H1+L2; H12
B4: anti-PD-L1 HC2 + LC2 (antibody, V domains shown)
VH: B3 VH with M48I, Q62P, S77N
VL: B3 VL
notes: Humanized antibody, Humanized VH 2 + Humanized VL 2; also called H2+L2; H22
B5: anti-PD-L1 HC3 + LC3 (antibody, V domains shown)
VH: B3 VH with Q1E, S77N
VL: B3 VL with L36Y, Q55D, T69S
notes: Humanized antibody, Humanized VH3 + Humanized VL 3; also called H3+L3; H33
B6: anti-PD-L1 HC2 + LC1 (antibody, V domains shown)
VH: B3 VH with M48I, Q62P, S77N
VL: B3 VL with L36Y, Q55D, R66G, Y71F
notes: Humanized antibody, Humanized VH 2 + Humanized VL 1; also called H2+L1; H21
B7: anti-PD-L1 HC3 + LC1 (antibody, V domains shown)
VH: B3 VH with Q1E, S77N
VL: B3 VL with L36Y, Q55D, R66G, Y71F
notes: Humanized antibody, Humanized VH3 + Humanized VL 1; also called H3+L1; H31
B8: anti-PD-L1 HC1 + LC1 (antibody, V domains shown)
VH: B3 VH
VL: B3 VL with L36Y, Q55D, R66G, Y71F
notes: Humanized antibody, Humanized VH 1 + Humanized VL 1; also called H1+L1; H11
B9: anti-PD-L1 HC1 + LC3 (antibody, V domains shown)
VH: B3 VH
VL: B3 VL with L36Y, Q55D, T69S
notes: Humanized antibody, Humanized VH 1 + Humanized VL 3; also called H1+L3; H13
B10: anti-PD-L1 HC2 + LC3 (antibody, V domains shown)
VH: B3 VH with M48I, Q62P, S77N
VL: B3 VL with L36Y, Q55D, T69S
notes: Humanized antibody, Humanized VH 2 + Humanized VL 3; also called H2+L3; H23
B11: anti-PD-L1 HC3 + LC2 (antibody, V domains shown)
VH: B3 VH with Q1E, S77N
VL: B3 VL
notes: Humanized antibody, Humanized VH3 + Humanized VL 2; also called H3+L2; H32
B12: parental humanized IgG1 positive control antibody (antibody, V domains shown)
VH: B3 VH
VL: B3 VL
notes: also called anti-PD-L1 IgG1; Anti-Human PD-L1 IgG1

Usually Kd stands for the equilibrium constant for the complex coming apart. Read a high Kd as lower affinity. As a reminder, the koff is a measure of how fast the partners let go of each other. A high value points to fast dissociation. By kon is commonly meant the rate constant with which the complex forms. Low values mean slow association, high ones fast association.

The target in the first assay is T1, mouse PD-L1 on transfected CHO cells (mouse, UniProt Q9EP73 19-290).
T1 construct: whole, on cells; also called mPD-L1; CHO/mPD-L1
T1 sequence (Q9EP73 19-290): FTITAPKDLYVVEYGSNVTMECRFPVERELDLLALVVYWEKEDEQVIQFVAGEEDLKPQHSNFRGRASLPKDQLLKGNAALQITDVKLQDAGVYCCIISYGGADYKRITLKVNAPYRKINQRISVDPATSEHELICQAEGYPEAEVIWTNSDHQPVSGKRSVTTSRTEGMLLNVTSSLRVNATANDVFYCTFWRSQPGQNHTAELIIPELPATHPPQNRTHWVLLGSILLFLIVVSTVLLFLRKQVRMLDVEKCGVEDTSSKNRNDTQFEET
Description: flow cytometry on CHO/mPD-L1 cells, one antibody amount, not given. As for the experimental part: CHO cells transfected with mouse PD-L1 (CHO/mPD-L1) were used to assess the species cross-reactivity of the anti-hPD-L1 mAb with mouse PD-L1. The cells were incubated with the anti-hPD-L1 mAb prior to flow cytometry analysis.
In general terms: A flow cytometer gives signals particle by particle.
Turning to B1, the binding result is “binds”.

The target in the next assay is T2, hPD-L1mIg fusion protein (human, UniProt Q9NZQ7 19-238).
T2 construct: also called hPD-L1 mIg protein; biotin-labeled hPD-L1-mouse Fc fusion protein; not shown: mouse Ig (Fc) part
T2 sequence (Q9NZQ7 19-238): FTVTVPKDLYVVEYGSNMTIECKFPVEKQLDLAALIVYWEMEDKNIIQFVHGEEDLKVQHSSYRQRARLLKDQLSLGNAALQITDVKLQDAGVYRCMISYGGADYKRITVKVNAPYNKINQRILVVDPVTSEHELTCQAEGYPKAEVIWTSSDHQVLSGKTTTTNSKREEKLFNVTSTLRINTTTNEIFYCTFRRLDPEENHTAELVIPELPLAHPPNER
Description: SPR, Biacore T200; hPD-L1 mIg amine-coupled on CM5 chip, antibody injected at 1-32 nM, full kinetic analysis. As for the experimental part: The binding affinities and kinetics between the humanized anti-hPD-L1 mAbs and the hPD-L1 protein were assessed with Biacore T200 (GE Healthcare Life Sciences). The hPD-L1 mIg protein was immobilized on the sensor chip CM5 by amine coupling. The parental and humanized antibodies were injected at a concentration gradient of 1, 2, 4, 8, 16, and 32 nM. Binding kinetic parameters, including association rate (Kₒₙ), dissociation rate (Koff), and affinity constant (KD) were determined by full kinetic analysis. […] As shown in Table 7 and FIG. 4, the antibodies with dissociation rates (Koff) from the lowest to the highest were: parental (PA200), H1+L2 (H12), H3+L2 (H32), H1+L1 (H11), H1+L3 (H13), H3+L1 (H31), H3+L3 (H33), H2+L2 (H22), H2+L1 (H21), and H2+L3 (H23).
In the case of B2, the Kd amounted to 0.128 nM, the koff was determined as 0.000118 s⁻¹ and the on-rate (kon) was found to be 924000 M⁻¹ s⁻¹.
The corresponding values for B3 are 0.557 nM, 0.000811 s⁻¹ and 1.46e+06 M⁻¹ s⁻¹.
The corresponding values for B4 are 1.23 nM, 0.00251 s⁻¹ and 2.05e+06 M⁻¹ s⁻¹.
The like results for B5 were, in that order, 1 nM, 0.00146 s⁻¹ and 1.46e+06 M⁻¹ s⁻¹.
B6 had a Kd of 2.18 nM, an off-rate constant (koff) of 0.00406 s⁻¹ and an on-rate (kon) of 1.86e+06 M⁻¹ s⁻¹.
The corresponding values for B7 are 1.17 nM, 0.00146 s⁻¹ and 1.25e+06 M⁻¹ s⁻¹.
Take B8: the Kd was found to be 1.38 nM, the off-rate (koff) was determined as 0.0012 s⁻¹ and the on-rate (kon) turned out to be 869000 M⁻¹ s⁻¹.
Take B9: the dissociation constant (Kd) turned out to be 1.3 nM, the dissociation rate constant (koff) amounted to 0.00143 s⁻¹ and the kon was found to be 1.1e+06 M⁻¹ s⁻¹.
Molecule B10 returned a Kd of 1.84 nM, a koff of 0.00417 s⁻¹ and an on-rate (kon) of 2.26e+06 M⁻¹ s⁻¹.
The molecule B11 returned a Kd of 0.666 nM, an off-rate (koff) of 0.0011 s⁻¹ and an on-rate (kon) of 1.65e+06 M⁻¹ s⁻¹.

The target of a further assay is T2, hPD-L1mIg fusion protein. Put plainly: BLI, ForteBio Octet RED96; biotin-labeled hPD-L1-mouse Fc on SA sensors, 1:1 model. As for the experimental part: All samples were prepared in PBS buffer (pH=7.4). The biotin-labeled hPD-L1-mouse Fc fusion protein was loaded onto SA sensors at a pre-determined loading threshold. scFv (PD-L1) was applied to the sensors at a concentration gradient of 3.125 nM-50 nM. Background subtraction was used to correct for sensor drifting. The data was fit to a 1:1 binding model using ForteBio's data analysis software in order to obtain the association (Kₒₙ) and dissociation (Koff) rates. The KD values were calculated based on Koff/Kₒₙ.
Background: BLI is a label-free optical method that tracks binding on a fibre tip over time.
Regarding B12, binding was put at a Kd of 6.92 nM, the koff was determined as 0.000225 s⁻¹ and the kon is 32600 M⁻¹ s⁻¹.
